Molecular target: Cas7 of the PseCAST TniQ-Cascade (QCascade) complex (Pseudoalteromonas (Tn7016 transposon))
Test: cryo-EM structure

stoichiometry N: 6
Substance: Cas7 of the PseCAST TniQ-Cascade (QCascade) complex (natural protein)
